# Test results: the nanobody polyreactivity screen of Harvey et al. (2022)
# Assay: yeast display, Sf9 membrane polyspecificity reagent, FACS + sequencing; frameworks hold sequencing errors
# In short: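 A nanobody's polyreactivity label depends on the gate it was sorted from. Yeast display cells were stained with 10% biotinylated, detergent-solubilized Sf9 membrane reagent for 1 hour at 4 °C, enriched on streptavidin microbeads and sorted by FACS. The low and high (top ~1%) gates were set on anti-HA fluorescence for expression and streptavidin fluorescence for reagent binding.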
row,Sequence,polyreactivity (PSR sort gate)
1,QVQLVESGGGLVQAGGSLRLSSAASGSTLGVYAMGWYRQAPGKERELVAGITRGGGRTYYADSVKGRFTISRENAKNTVYLQMNSLKPEDTAVYYCNKGQRGPYDYWGQGTQVTVSS,high polyreactivity
2,QVQLVESGGGLVQAGGSLRLSCAASGRIFHQYAMGWYRQAPGKERELVAAITGGGSTYYADSVKGRFTISRDNAKNTVSLQMNSLKPEDTAVYYCAAPPFGYYEVGYDSWGQGTQVTVSS,low polyreactivity
3,QVQLVESGGGLVQAGGSLRLSCAASGFIFGWYTMGWYRQAPGKERELVASISRSGGSTYYAESVKARFTISRDNEKNSVYLQMNSQKPEDNPVYYCAKRSLVDAHGYWGQGTQVTVSS,high polyreactivity
4,QVQLVESGAGLVHAGGSLRLSCAASGSIFEGYAMGWYRQAPGKERELVARITSDDDSTYYADSVKGRFTNSRDTAKNTVYLQMYSLKPEDTAVFYCNADYYWTTLAMDSWGQGTQVTVSS,low polyreactivity
5,QVQLVESGGGLVQAGGRLRLSCAASGIIFYGYAMGWYRQAPGKERELVAAITSYDGSTYYADSVKGRFTISRDNEKNTVYLQMNILKPEDTAFYYCAADYSTYEGWYWFDYWGQGTQVTVSS,high polyreactivity
6,QVQLVESGGGLVQAGGSLRLSCAASGSTFTWYAMGWYRQAPGKERELVADISYGGGSTYYADSVKGRFTISRDNAKNTVYLPMNSLKPEDTAVYYCAAESIPYYRYDYWGQGTQVTVSS,low polyreactivity
7,QVQLVESGGGLVQAGGSLRLSCADSGFTFRTYAMGWYRQAPGKEREFVAAITTYGGSTYYADSVKGRFTISRDNAKYTVYLQMNTLKPEDTAVYYCATRGRLRNYDYWGQGTQVTVSS,high polyreactivity
8,QVQLVDSGGGLVQAGGSLRLSCSASVRTFRGTAMGWYRHAPGKEREMVAPITYRTGSKYYPDSVKGRFTNSRDNAKNTVYLLLNSLKPEDSAVYYCAAVSGRSYDKDYFWGQGTQVTVSS,high polyreactivity
9,QVQLVESGGGLVQAGGSLRLSCAASGSIFEYYAMGWYRQAPGKERELVAAISTGGSTYYADSVKGRFTISRDNAKNTVYLQMNSLKPEDTAVYYCAAEDYHPGADTVGTGYDYWGQGTQVTVSS,low polyreactivity
10,QVQLVESGGGLVQAGGSLRLSCAASGRTFYANAMGWSRQAPGRERELVAAISTGGDGTYYADSVKGRFTISRDYAKITVYLQMNSLKPEDTAVYDCAVRHRASGILYYYWGQGTQVTVSS,low polyreactivity
11,QVQLVESGGGLVQAGGSLRLSCAASGRTFGCYAMGWYRQAPGKERELVASITQRGGRTYYADSVKGRFTISRDNAKNTVYLQMNSLKPEDTAVYYCAAKTSPGMYYWVQGTQVTVSS,high polyreactivity
12,QVQLVESGGGLVQAGGSLRLICAASGGTFYINTMGWYRQAPGKERELVATITIVVSTKYADSVKGRFTISRDNAKNTVYLQMNSLKPEDTAVYYCAKDDVYRDSYLVFDGEMDYWGQGTQVTVSS,low polyreactivity
13,QVQLVESGGGLVQAGGSLRLSCAAAGFIFRYYAMGWYRPAPGKVRELVAAITNSGVSTYYADSVKGRFTISRDNAKNTVYLQMNRLKPEDTAVYYCAATYRTRTSQYDYWGQGTQVTVSS,high polyreactivity
14,QVQLVESGGGLVQAGGSLRLSCAASGFTFWRNTMGSYRQARGKEREFVAAIDWSGGSTTYADSVKGRFTISRDNAKNTVYLQMNSLKKEDTAVYYCAAAERRRHYWWGQESDYWGQGTQVTVSS,low polyreactivity
15,QVQLVESGGGLVQAGGSLRLSSAASGRTFNIYAKGWYRHAPGKERELVAAITWRSGSTYDADSVKGRFTISRDNAKNTVYLQMNSLKPEDTAVYYCAAEQWSSVPEFDYWGQGTQVTVSS,high polyreactivity
16,QVQLVESGGGLVQAGGSLRLSCAASGSTFITYVMGWYRQAPGKERELVAAISRSGGTTYYADSVKGRFTISRDNAKNTVYLQMNCLKPEDTAVYYCAARIGGQVQKTARGSWGQGTQVTVSS,high polyreactivity
17,QVQLVESGGGLVQAGGSLRLSCAASGSIFSRNVMGGSRQAPGKERELVAAITGSGGRTYYADSVKGRFTISRDNAKNTVYLQMNSLKPEDTAVYYCAKSRPGPYDYWGQGTQVTVSS,high polyreactivity
18,QVQLVESGGGLVQAGGSLRLSCAASGSTFPGYAMGWYRQAPGKERELVASIYTGGSTYYADSVKGRFTISRDNAKNTVYLQMNSLKPEDTAVYYCAADSYNVSSLLYYWGQGTQVTVSS,low polyreactivity
19,QVQLVESGGGLVQAGGSLRLSCAASGSIFAYNAMGWYRQAPGKEREFVAVITRSDDSTYADSVKGRFTISRDNAKNSVYLQMNSLKPEDTAVYYCAAQPFVIDGGYRGDYWGQGTQVTVSS,low polyreactivity
20,QVQLVESGGGLVQAGGSLRLTCAASGFTFGPYDMGWSRQAPGKERELVAAITDSSGSTHYADSVKGRFTISRDNAKNTVYLQMNSLKPEDTAVYYCAAQLKSHSTYGHDYWGQGTQVTVSS,low polyreactivity
21,QVQLVESGGGLVQAGGSLRLSCAASGITFDGYAMGWYRQAPGKERELVAAISISGASTYYADSVKGRFTISRDNAKNTVYLQKNSLKPEDTAVYYCAASSWINQYPGDYWGQGTQVTVSS,high polyreactivity
22,QVQLVESGGGLVQAGGSLRLSCAASGIIFSFYAMGWYRKAPGKERELVAAISQSGGSTYYADSVKGRFTISRDNAKNTVYLQMNSLKPEDTAVYYCAVAGWYGSEYWGQGTQVTVSS,high polyreactivity

row,Sequence,polyreactivity (PSR sort gate)
1,QVQLVESGGGLVQAGGSLRLSCAASGGTFRWNARGWYRQAPGKERELVAAITKSGGSTYYADSVKGRFTISRDIAKNTVYLQMNSLKPEDTAVYYCATDYLRRRDYWGQGTQVTVSS,high polyreactivity
2,QFQLVESGGGLVQAGGSLRLSCAASGFTFRKYAMGWYRQAPGKERELVAAIRSTGRSNYADSVKGRFTISRDNAKNTVYFQMNSLKPVDTAVYYFNVDLTYYYYEVDYWGQGTQVTVSS,high polyreactivity
3,QVQLVESGGGLVQAGGSLRLSCAASGSTFGANAMGWYRQAPGKEREFVAAISRSGVRTYYADSVKGRFTISRDNAKNTVYLQMNSLKPEDTAVYYCAADGYWWTYKGQYDYWGQGTQVTVSS,low polyreactivity
4,QVQLVESGGGLVQAGGSLRLSCAASGRIFGYYAMGWYRQAPGKEREWVAAINSGGSTNYADSVKGRFTISRDNAKNTVYLQMNSLIPEDTAVYYCAAGWRYRYFRSRNFYPYYYWGQGTQVTVSS,high polyreactivity
5,QVQLVESGGGLVQAGGSLRLSCAASGSTFVYNTMGWYRQAPGKERELVASISSDGNTYYADSVKGRFTISRDNAKNTVYLQMNSLKPEDTAVYYCAARYYYDWRFVGYDYWGQGTQVTVSS,low polyreactivity
6,QVQLVESGGGLVQAGGSLRLSCAASGYIFGWYTMGWYRQAPGKEREFVASISNSDASTYYADSVKGRFTISRDNAKNTVYLQMNSLKPEDTAVYYCAADTTYWHWIYYYWGQGTQVTVSS,low polyreactivity
7,QVQLVESGGGLVQAGGTLRLSCAATRSTFYPYAMGWYRQAPGKERELVAAISDGDSTNYADSVKGRFTISRDNAKNTVSLQMNSVKPEDTAVYYCNADYVRIFYSYYGYHDYDYWGQGTQVTVSS,low polyreactivity
8,QVQLVESGGGLVQAGGSLRLSCAASGSIFIPYAMGWYRQAPGKERELVAAISGSGGSTYYADSVKGRFTISRDNAKNTVYLQMNSLKPEDTAVYYCNAVYRRSKYYFSQGYDYWGQGTQVTVSS,high polyreactivity
9,QVQLVESGGCLVQAGGSLRLSCAASGSIFAEYAMGWSRQAPGKERELVASISSRGGRTFYADSVKGRFTISRDNAKNTVYLQMNSLKPEDTAVYYCNALRIYITKKTGYGYWGQGTQVTVSS,high polyreactivity
10,QVQLVESGGGLVQAGGSLRLSCAASGSTIIRNAMGWYRQAPGKERELVAAISTSAGRTHYADSVKGRFTISRDHAKNTVYLNMNSLKPEDTAVSYCATRGKGHYYYWGQGTKVTVSS,high polyreactivity
11,QVQLVESGGGLVQAGGSLRLSCAASGSTFESNAMGWYRQAPGKERELVASISGSGGSTFYADSVKGRFTISRDNAKNTVYLQMNSLKPEDTAVYYCAAYKEPYYEEYGYWGQGTQVTVSS,low polyreactivity
12,QVQLVESGGGLVQAGGSLRLSCAASGIIFYPYAMGWYIQAPGKERELVAGISSSGGSTYYADSVKGRFTISRDNAKNTVYLQMNSLKPEDTAVYYCAVGGERGARIGSNHRGSRYDYWGQGTQVTVSS,high polyreactivity
13,QVQLVESGGGLVQAGGSLRLSCAASGSTFVVNAMGWYRQAPGKEREFVAAITWNGGSTYADSVKGRFTISRDNAKNTVYLQMNSLKPEDTAVYYCSADLSYWDDFDYWGQGTQVTVSS,low polyreactivity
14,QVQLVESGGGLVQAGGSLRLSCAASGRTFLIYAMGWYRQAPGKETEFVAAIRGRGGSTYYADSVKGRFTISRDNAKNTVYFQMNCLKPVDTAVYYCAATFPGRSYRIRGYGYDYWGQGTQVTVSS,high polyreactivity
15,QVQLVESGGGLVQAGGSLRLSCAASGRTFTDNAMGWYRQAPGKERELVAAISRRGGSTYYADSVKGRFTISRDNAKNTVYLQMNSLKPEVTAVYYCNTDEIAGGFPYRYYLYYGYDYWGQGTQVTVSS,low polyreactivity
16,QVQLVESGGGLVQAGGSLRISCAASGSIFRVYAMGWYRPAPGKERELVASITLSGGSTYYADSVKGRVTISRDNAKNTVYLQMNSLKPDDTAVYSCAARKRYRNPNTSRGMDYWGQGTQVNVSS,high polyreactivity
17,QVQLVESGGGLVQAGGSLRLSCAASGSNFSRYAMGWYRQAPGKERDLVAAITSTGDSTSYADSVKGRFTISRDNAKNTVYVQMNSLKPEDTAVYYCAIVYVYRYVIPYDYWGQGTQVTVSS,low polyreactivity
18,QVQLVESGGGLVQAGGSLRLSCAASGIIFASYPMGWYRQAPGKESELVADINVTGGTTYYADTVKGRFTISRDNAKNTVYLQMNSLKPEDTAVYYCAARQSIFYSWTGVEYYYWGQGTQVTVSS,low polyreactivity
19,QVQLVESGGGLVQAGGRLRLSCAASGSTFVRYAMGWYRQAPGKERELVAAISSSGATTYYADSVKGRFTISRDNAKNTVYLQMNSLKPEDTAVYYCAKYGRATRGLDNYWGQGTQVTVSS,high polyreactivity
20,QVQLVESGGGLVQAGGSLRLSCAASGFIFRKYVMGWYRQAPGKERELVAAITRSGTSTYYADSVKGRFTISRDNAKNTVYLQMNSLKPEDNAVYYCNVGSDGWYYWGQGTQVTVSS,low polyreactivity
21,QVQLVESGGGLVQAGGSLRLSCAASGSIFNYNDMGWYRQAPGKERELVAAIDSSGTSTYYADSVKGRFTISRDNAKNTVYLQMNSLKPEDTAVYYCNADSSLGFGYWGQGTLVTVSS,low polyreactivity
